Measurements: PMC5562816, “Rap1 and Cdc13 have complementary roles in preventing exonucleolytic degradation of telomere 5′ ends”

Target: T1, Rap1 (Naumovozyma castellii, UniProt Q96VU6 1-826)
T1 sequence: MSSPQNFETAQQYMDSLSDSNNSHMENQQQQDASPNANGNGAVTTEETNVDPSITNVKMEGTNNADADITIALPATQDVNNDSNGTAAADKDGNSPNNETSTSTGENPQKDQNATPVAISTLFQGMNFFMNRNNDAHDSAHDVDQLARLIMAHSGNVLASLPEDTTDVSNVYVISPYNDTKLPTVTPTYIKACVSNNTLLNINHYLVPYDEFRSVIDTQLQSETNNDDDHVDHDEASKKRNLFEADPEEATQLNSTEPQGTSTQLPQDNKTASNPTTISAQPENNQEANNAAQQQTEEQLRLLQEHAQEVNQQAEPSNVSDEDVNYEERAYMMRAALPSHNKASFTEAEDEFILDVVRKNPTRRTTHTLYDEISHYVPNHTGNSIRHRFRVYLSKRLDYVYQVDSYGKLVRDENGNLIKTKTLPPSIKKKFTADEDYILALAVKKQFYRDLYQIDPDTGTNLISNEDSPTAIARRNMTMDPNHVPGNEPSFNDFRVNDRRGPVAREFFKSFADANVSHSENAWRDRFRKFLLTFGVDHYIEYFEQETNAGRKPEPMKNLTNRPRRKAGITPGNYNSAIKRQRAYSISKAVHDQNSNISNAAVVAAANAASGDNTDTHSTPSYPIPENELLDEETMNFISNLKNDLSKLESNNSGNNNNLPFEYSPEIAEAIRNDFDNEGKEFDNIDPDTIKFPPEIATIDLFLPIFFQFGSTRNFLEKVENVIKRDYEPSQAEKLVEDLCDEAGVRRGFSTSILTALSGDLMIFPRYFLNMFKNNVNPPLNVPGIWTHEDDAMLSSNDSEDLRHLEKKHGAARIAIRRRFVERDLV
Assay: EMSA; EMSA: 10 fmol probe, 1.5 ug competitor mix (E. coli DNA, salmon sperm DNA, yeast tRNA), 1x lambda-exonuclease buffer (67 mM glycine-KOH pH 9.4, 2.5 (unit not given) MgCl2, BSA 50 ug/ul as printed), 8% glycerol, 15 ul, 25 C 15 min; gel 6% in 1x TBE at 4 C
Settings: protein: recombinant; tags: N-terminal 6xHis; label: 32P 3'-deoxy-ATP added to 3' end of C-strand; 3' overhang 9 nt; other end blunt

B1: D17S9m (mixed)
DNA 1: GTCACACGTCACACTCTGGGACTCTCCGTGTCTGGGTGTC
DNA 2: ACACGGAGAGTCCCAGAGTGTGACGTGTGAC
modifications: 5'-phosphate on C-strand (DEPA substrate)
- binding result: no binding
